Data reported in patent US20110165081A1.

What was measured:
[1] = target: prostate specific membrane antigen (PSMA), full-length (human) (UniProt Q04609); experiment: cell-based or functional assay
[2] = target: prostate specific membrane antigen (PSMA), full-length (human) (UniProt Q04609); experiment: radiolabelled mAb bound to PSMA-3T3 cells
[3] = target: prostate specific membrane antigen (PSMA), full-length (human) (UniProt Q04609); experiment: radiolabelled mAb bound to PSMA-expressing cells, average
[4] = target: prostate specific membrane antigen (PSMA), full-length (human) (UniProt Q04609); experiment: radiolabelled mAb bound to PSMA-3T3 cells (bracket: 3T3 control)

Sequence of prostate specific membrane antigen (PSMA), full-length (human) (Q04609 whole entry): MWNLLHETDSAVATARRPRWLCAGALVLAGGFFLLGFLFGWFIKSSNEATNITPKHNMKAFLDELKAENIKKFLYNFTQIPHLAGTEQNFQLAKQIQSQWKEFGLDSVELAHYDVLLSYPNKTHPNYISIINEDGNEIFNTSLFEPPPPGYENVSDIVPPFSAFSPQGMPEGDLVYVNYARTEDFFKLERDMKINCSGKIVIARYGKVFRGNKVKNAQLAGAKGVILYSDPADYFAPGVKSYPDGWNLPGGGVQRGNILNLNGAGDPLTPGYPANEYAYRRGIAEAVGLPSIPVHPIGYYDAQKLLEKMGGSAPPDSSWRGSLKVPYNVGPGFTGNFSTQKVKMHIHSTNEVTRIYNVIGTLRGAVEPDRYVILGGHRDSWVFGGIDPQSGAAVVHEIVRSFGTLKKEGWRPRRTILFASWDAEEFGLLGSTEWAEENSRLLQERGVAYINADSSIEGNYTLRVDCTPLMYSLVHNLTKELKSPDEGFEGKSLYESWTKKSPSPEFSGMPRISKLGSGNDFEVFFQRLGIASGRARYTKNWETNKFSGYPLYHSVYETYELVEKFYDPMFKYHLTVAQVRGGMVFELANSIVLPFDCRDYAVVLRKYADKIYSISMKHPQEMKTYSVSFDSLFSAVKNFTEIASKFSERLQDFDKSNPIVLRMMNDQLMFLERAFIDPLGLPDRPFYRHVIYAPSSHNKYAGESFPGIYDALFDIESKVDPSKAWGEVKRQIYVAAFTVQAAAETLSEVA

Row | Immunoreactivity (%) [2] [%] | Immunoreactivity (%), Average [3] [%] | Immunoreactivity (%) [4] [%] | Substance | LD50, immunotoxin cytotoxicity (Mab-Zap saporin secondary) on C4-2 cells [1] [pM] | LD50, immunotoxin cytotoxicity (Mab-Zap saporin secondary) on PSMA-3T3 cells [1] [pM]
1 |  |  |  | mAb J591 (ATCC #HB-12126) (antibody) | 88.2 | 89
2 | 58.5 | 56.7 | 54.9 | ^111In radiolabeled CHX-A″-DTPA antibody mJ591 |  | 
